B1: 89Zr-DFO-H4H14639D (bispecific antibody, V domains shown)
VH 1: EVQLVESGGGLVQPGTSLRLSCAASGFTFDDYAMHWVRQAPGKGLEWVSGITWNSYNIDYADSVKGRFTISRDNAKNSLYLQMNSLRAEDTALYYCAKDDDYSNYVYFDYWGQGTLVTVSS
VH 2: EVQLVESGGGLVQPGGSLRLSCAASGFIVTTNYMTWLRQAPGKGLEWVSLIYSSGHTYYADSVKGRFTISRHNSKNTLYLQMDSLRAEDTAVYYCASAFAADVFDIWGQGTMVTVSS
VL: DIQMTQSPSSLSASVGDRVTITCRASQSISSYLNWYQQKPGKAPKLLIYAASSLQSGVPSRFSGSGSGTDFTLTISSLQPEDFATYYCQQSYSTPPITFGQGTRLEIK
modifications: p-SCN-Bn-DFO on primary amines (sites not given), chelating 89Zr
notes: also called DFO-Ab radioimmunoconjugate; 89Zr-DFO-MET x MET bispecific antibody conjugate
B2: DFO-H4H14639D immunoconjugate (DAR 1.26) (bispecific antibody, V domains shown)
VH 1: B1 VH 1
VH 2: B1 VH 2
VL: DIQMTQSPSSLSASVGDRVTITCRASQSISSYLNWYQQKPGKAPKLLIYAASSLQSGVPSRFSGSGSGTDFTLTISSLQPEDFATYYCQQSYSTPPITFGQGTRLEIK
modifications: p-SCN-Bn-DFO on primary amines, sites not stated; average DAR 1.26 per antibody
notes: also called DFO-Ab immunoconjugate; DFO-MET x MET immunoconjugate

Legend:
[1] = target: T1, human MET on EBC-1, NCI-H441 and NCI-H358 cells (human, UniProt P08581 25-1390); assay: saturation radioligand binding (antibody binding capacity) assay with 89Zr-DFO-H4H14639D on NCI-H441 cells, 4 C, 45 min, gamma counting; x axis is total antibody dosed, not free
T1 construct: whole, on cells; also called Met receptor; c-Met
Description: (§1) This wash process was repeated two more times, before resuspending cells in 200 μL of cold buffer (10% FBS in PBS, v/v). Of the 200 μL, 180 μL from each well was collected and dispensed into flip-cap tubes, representing the cell-bound antibody. […] A calibration curve was generated from the total antibody dosed samples using counts detected vs total antibody dosed per well, T, based on the dilution series starting from the initial antibody concentration (divided by five because of sampling). The calibration curve was used to convert the bound fraction counts (multiplied by […] because of sampling) to mass (or concentration) of bound antibody, B.
(§2) The radioligand internalization was also assayed at the highest dosed concentration at 4° C. for the 45 minutes. […] Activity of cell pellets, stripping supernatants, and wash supernatants were measured using a gamma counter. The fraction internalized, I, was calculated as the ratio of activity of the cell pellet over sum of the total activity of the cell pellet, stripping supernatant and wash supernatants.
(§3) Because there are multiple binding formats for H4H14639D, the data set was fit by the Hill-Langmuir equation (equation 3). The ABC was then calculated using equation 2. Non-specific binding was determined to be a negligible component for all runs was not considered as part of the analysis. […]

[2] = target: T1, human MET on EBC-1, NCI-H441 and …; assay: saturation radioligand binding (antibody binding capacity) assay with 89Zr-DFO-H4H14639D on EBC-1 cells, 4 C, 45 min, gamma counting; x axis is total antibody dosed, not free
Description: as §1, §2, §3

[3] = target: MET ('target' in the SPR assay of Example 2; construct not stated) (UniProt P08581 25-932, limits assumed); assay: SPR, Biacore 8k
Sequence of MET ('target' in the SPR assay of Example 2; construct not stated) (P08581 25-932 limits assumed): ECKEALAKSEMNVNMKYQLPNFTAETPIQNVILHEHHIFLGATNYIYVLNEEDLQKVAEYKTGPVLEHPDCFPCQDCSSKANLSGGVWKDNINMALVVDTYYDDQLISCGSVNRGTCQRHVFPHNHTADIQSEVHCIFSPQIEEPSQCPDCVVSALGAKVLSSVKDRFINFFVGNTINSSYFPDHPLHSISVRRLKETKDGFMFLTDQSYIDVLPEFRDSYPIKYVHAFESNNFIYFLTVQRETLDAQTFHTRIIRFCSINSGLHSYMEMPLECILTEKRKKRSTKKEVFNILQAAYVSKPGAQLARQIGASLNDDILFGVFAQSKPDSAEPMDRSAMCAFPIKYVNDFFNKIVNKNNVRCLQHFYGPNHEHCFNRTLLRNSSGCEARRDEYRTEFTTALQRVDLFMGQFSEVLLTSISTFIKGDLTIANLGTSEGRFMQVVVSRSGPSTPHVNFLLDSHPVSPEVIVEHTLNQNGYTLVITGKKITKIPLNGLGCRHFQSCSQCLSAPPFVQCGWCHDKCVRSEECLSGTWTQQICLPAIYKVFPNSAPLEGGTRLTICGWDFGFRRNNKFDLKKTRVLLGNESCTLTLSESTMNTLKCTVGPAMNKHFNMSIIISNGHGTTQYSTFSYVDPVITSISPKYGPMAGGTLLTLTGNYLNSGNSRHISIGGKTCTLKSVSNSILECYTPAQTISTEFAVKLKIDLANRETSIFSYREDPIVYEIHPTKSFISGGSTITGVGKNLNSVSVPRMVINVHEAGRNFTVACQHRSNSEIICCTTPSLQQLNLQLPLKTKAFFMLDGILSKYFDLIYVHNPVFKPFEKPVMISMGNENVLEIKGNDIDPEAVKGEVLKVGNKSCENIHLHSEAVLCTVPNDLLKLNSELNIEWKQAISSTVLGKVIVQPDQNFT

T1 sequence (P08581 25-1390): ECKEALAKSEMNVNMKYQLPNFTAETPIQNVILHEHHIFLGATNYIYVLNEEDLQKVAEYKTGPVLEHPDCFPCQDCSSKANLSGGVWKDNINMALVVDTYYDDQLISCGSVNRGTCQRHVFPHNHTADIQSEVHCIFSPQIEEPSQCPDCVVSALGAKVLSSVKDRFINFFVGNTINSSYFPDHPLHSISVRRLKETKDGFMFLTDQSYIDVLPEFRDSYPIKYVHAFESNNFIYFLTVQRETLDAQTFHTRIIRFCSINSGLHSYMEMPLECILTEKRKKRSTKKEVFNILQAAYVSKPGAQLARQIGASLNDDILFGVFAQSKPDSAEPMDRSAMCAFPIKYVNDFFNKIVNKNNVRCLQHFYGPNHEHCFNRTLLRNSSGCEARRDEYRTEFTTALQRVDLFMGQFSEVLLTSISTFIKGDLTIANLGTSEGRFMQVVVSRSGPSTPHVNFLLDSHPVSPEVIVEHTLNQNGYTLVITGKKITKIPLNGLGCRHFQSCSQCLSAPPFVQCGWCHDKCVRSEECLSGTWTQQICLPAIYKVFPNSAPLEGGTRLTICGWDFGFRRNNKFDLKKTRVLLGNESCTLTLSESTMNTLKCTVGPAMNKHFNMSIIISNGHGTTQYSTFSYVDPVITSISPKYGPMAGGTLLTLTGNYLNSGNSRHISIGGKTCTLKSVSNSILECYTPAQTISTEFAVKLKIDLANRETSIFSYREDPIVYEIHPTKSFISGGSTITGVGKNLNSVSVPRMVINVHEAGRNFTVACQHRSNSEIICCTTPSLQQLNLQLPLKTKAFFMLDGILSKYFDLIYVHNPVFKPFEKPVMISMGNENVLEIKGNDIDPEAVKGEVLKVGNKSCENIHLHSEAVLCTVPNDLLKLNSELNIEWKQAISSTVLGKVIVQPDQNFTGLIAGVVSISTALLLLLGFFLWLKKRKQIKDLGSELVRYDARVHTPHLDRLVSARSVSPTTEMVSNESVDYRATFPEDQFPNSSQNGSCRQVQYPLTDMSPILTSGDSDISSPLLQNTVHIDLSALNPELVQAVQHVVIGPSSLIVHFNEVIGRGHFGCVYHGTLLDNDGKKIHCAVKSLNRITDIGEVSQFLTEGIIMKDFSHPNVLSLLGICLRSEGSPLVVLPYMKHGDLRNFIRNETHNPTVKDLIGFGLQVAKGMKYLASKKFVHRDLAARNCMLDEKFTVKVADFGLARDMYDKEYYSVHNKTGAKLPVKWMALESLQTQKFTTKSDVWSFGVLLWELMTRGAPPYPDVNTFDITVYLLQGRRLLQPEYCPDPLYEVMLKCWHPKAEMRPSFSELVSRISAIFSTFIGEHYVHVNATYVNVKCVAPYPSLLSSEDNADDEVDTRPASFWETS

Binder | EC50 (read off the curve) [1] | EC50 (read off the curve) [2] | KD relative to the KD of the unconjugated bispecific antibody [3]
B1 | ~2 nM | ~3 nM | –
B2 | – | – | ≤ 10%

Source: patent US20210077638A1 (Regeneron, published 2021)
